# In IntAct's records for PubMed 31515488:
# B1: Lipopolysaccharide-induced tumor necrosis factor-alpha factor (Homo sapiens), Q99732 (parent)
# chain: MSVPGPYQAATGPSSAPSAPPSYEETVAVNSYYPTPPAPMPGPTTGLVTGPDGKGMNPPSYYTQPAPIPNNNPITVQTVYVQHPITFLDRPIQMCCPSCNKMIVSQLSYNAGALTWLSCGSLCLLGCIAGCCFIPFCVDALQDVDHYCPNCRALLGTYKRL
# B2: E3 ubiquitin-protein ligase CBL-B (Homo sapiens), Q13191 (parent)
# chain: MANSMNGRNPGGRGGNPRKGRILGIIDAIQDAVGPPKQAAADRRTVEKTWKLMDKVVRLCQNPKLQLKNSPPYILDILPDTYQHLRLILSKYDDNQKLAQLSENEYFKIYIDSLMKKSKRAIRLFKEGKERMYEEQSQDRRNLTKLSLIFSHMLAEIKAIFPNGQFQGDNFRITKADAAEFWRKFFGDKTIVPWKVFRQCLHEVHQISSGLEAMALKSTIDLTCNDYISVFEFDIFTRLFQPWGSILRNWNFLAVTHPGYMAFLTYDEVKARLQKYSTKPGSYIFRLSCTRLGQWAIGYVTGDGNILQTIPHNKPLFQALIDGSREGFYLYPDGRSYNPDLTGLCEPTPHDHIKVTQEQYELYCEMGSTFQLCKICAENDKDVKIEPCGHLMCTSCLTAWQESDGQGCPFCRCEIKGTEPIIVDPFDPRDEGSRCCSIIDPFGMPMLDLDDDDDREESLMMNRLANVRKCTDRQNSPVTSPGSSPLAQRRKPQPDPLQIPHLSLPPVPPRLDLIQKGIVRSPCGSPTGSPKSSPCMVRKQDKPLPAPPPPLRDPPPPPPERPPPIPPDNRLSRHIHHVESVPSRDPPMPLEAWCPRDVFGTNQLVGCRLLGEGSPKPGITASSNVNGRHSRVGSDPVLMRKHRRHDLPLEGAKVFSNGHLGSEEYDVPPRLSPPPPVTTLLPSIKCTGPLANSLSEKTRDPVEEDDDEYKIPSSHPVSLNSQPSHCHNVKPPVRSCDNGHCMLNGTHGPSSEKKSNIPDLSIYLKGDVFDSASDPVPLPPARPPTRDNPKHGSSLNRTPSDYDLLIPPLGEDAFDALPPSLPPPPPPARHSLIEHSKPPGSSSRPSSGQDLFLLPSDPFVDLASGQVPLPPARRLPGENVKTNRTSQDYDQLPSCSDGSQAPARPPKPRPRRTAPEIHHRKPHGPEAALENVDAKIAKLMGEGYAFEEVKRALEIAQNNVEVARSILREFAFPPPVSPRLNL
# B3: Isoform 1 of Cell division control protein 45 homolog (Homo sapiens), O75419-1 (parent)
# chain: MFVSDFRKEFYEVVQSQRVLLFVASDVDALCACKILQALFQCDHVQYTLVPVSGWQELETAFLEHKEQFHYFILINCGANVDLLDILQPDEDTIFFVCDTHRPVNVVNVYNDTQIKLLIKQDDDLEVPAYEDIFRDEEEDEEHSGNDSDGSEPSEKRTRLEEEIVEQTMRRRQRREWEARRRDILFDYEQYEYHGTSSAMVMFELAWMLSKDLNDMLWWAIVGLTDQWVQDKITQMKYVTDVGVLQRHVSRHNHRNEDEENTLSVDCTRISFEYDLRLVLYQHWSLHDSLCNTSYTAARFKLWSVHGQKRLQEFLADMGLPLKQVKQKFQAMDISLKENLREMIEESANKFGMKDMRVQTFSIHFGFKHKFLASDVVFATMSLMESPEKDGSGTDHFIQALDSLSRSNLDKLYHGLELAKKQLRATQQTIASCLCTNLVISQGPFLYCSLMEGTPDVMLFSRPASLSLLSKHLLKSFVCSTKNRRCKLLPLVMAAPLSMEHGTVTVVGIPPETDSSDRKNFFGRAFEKAAESTSSRMLHNHFDLSVIELKAEDRSKFLDALISLLS
# partner: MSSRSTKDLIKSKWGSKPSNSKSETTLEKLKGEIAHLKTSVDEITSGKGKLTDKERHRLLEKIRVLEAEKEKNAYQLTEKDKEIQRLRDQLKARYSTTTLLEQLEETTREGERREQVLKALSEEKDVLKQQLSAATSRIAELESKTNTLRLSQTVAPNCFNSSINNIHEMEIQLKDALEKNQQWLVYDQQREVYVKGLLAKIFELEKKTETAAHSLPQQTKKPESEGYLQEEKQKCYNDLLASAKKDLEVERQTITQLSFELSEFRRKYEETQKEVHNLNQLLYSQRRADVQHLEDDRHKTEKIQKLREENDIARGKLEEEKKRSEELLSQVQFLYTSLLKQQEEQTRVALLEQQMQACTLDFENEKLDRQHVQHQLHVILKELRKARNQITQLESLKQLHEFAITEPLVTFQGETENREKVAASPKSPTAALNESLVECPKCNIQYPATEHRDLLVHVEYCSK
# B4: Segment polarity protein dishevelled homolog DVL-2 (Homo sapiens), O14641 (parent)
# chain: MAGSSTGGGGVGETKVIYHLDEEETPYLVKIPVPAERITLGDFKSVLQRPAGAKYFFKSMDQDFGVVKEEISDDNARLPCFNGRVVSWLVSSDNPQPEMAPPVHEPRAELAPPAPPLPPLPPERTSGIGDSRPPSFHPNVSSSHENLEPETETESVVSLRRERPRRRDSSEHGAGGHRTGGPSRLERHLAGYESSSTLMTSELESTSLGDSDEEDTMSRFSSSTEQSSASRLLKRHRRRRKQRPPRLERTSSFSSVTDSTMSLNIITVTLNMEKYNFLGISIVGQSNERGDGGIYIGSIMKGGAVAADGRIEPGDMLLQVNDMNFENMSNDDAVRVLRDIVHKPGPIVLTVAKCWDPSPQAYFTLPRNEPIQPIDPAAWVSHSAALTGTFPAYPGSSSMSTITSGSSLPDGCEGRGLSVHTDMASVTKAMAAPESGLEVRDRMWLKITIPNAFLGSDVVDWLYHHVEGFPERREARKYASGLLKAGLIRHTVNKITFSEQCYYVFGDLSGGCESYLVNLSLNDNDGSSGASDQDTLAPLPGATPWPLLPTFSYQYPAPHPYSPQPPPYHELSSYTYGGGSASSQHSEGSRSSGSTRSDGGAGRTGRPEERAPESKSGSGSESEPSSRGGSLRRGGEASGTSDGGPPPSRGSTGGAPNLRAHPGLHPYGPPPGMALPYNPMMVVMMPPPPPPVPPAVQPPGAPPVRDLGSVPPELTASRQSFHMAMGNPSEFFVDVM
# partner: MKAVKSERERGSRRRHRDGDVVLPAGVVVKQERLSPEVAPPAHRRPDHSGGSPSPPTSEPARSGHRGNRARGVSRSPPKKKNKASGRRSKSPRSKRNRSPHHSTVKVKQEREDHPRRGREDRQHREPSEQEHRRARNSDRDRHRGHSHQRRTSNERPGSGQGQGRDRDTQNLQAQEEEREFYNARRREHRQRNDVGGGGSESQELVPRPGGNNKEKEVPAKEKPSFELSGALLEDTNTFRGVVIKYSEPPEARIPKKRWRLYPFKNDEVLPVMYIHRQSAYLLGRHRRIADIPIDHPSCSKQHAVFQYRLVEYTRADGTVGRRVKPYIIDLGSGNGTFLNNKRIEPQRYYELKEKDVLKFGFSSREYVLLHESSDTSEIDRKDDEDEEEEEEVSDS
# B5: U3 small nucleolar RNA-associated protein 14 homolog A (Homo sapiens), Q9BVJ6 (parent)
# chain: MTANRLAESLLALSQQEELADLPKDYLLSESEDEGDNDGERKHQKLLEAISSLDGKNRRKLAERSEASLKVSEFNVSSEGSGEKLVLADLLEPVKTSSSLATVKKQLSRVKSKKTVELPLNKEEIERIHREVAFNKTAQVLSKWDPVVLKNRQAEQLVFPLEKEEPAIAPIEHVLSGWKARTPLEQEIFNLLHKNKQPVTDPLLTPVEKASLRAMSLEEAKMRRAELQRARALQSYYEAKARREKKIKSKKYHKVVKKGKAKKALKEFEQLRKVNPAAALEELEKIEKARMMERMSLKHQNSGKWAKSKAIMAKYDLEARQAMQEQLSKNKELTQKLQVASESEEEEGGTEDVEELLVPDVVNEVQMNADGPNPWMLRSCTSDTKEAATQEDPEQLPELEAHGVSESEGEERPVAEEEILLREFEERRSLRKRSELSQDAEPAGSQETKDSGSQEVLSELRVLSQKLKENHQSRKQKASSEGTIPQVQREEPAPEEEEPLLLQRPERVQTLEELEELGKEECFQNKELPRPVLEGQQSERTPNNRPDAPKEKKKKEQMIDLQNLLTTQSPSVKSLAVPTIEELEDEEERNHRQMIKEAFAGDDVIRDFLKEKREAVEASKPKDVDLTLPGWGEWGGVGLKPSAKKRRRFLIKAPEGPPRKDKNLPNVIINEKRNIHAAAHQVRVLPYPFTHHWQFERTIQTPIGSTWNTQRAFQKLTTPKVVTKPGHIINPIKAEDVGYRSSSRSDLSVIQRNPKRITTRHKKQLKKCSVD
# Variants of: B1
# Conditions: with bag3_human BAG3, O95817
# bag3_human BAG3, O95817, sequence (O95817 whole entry): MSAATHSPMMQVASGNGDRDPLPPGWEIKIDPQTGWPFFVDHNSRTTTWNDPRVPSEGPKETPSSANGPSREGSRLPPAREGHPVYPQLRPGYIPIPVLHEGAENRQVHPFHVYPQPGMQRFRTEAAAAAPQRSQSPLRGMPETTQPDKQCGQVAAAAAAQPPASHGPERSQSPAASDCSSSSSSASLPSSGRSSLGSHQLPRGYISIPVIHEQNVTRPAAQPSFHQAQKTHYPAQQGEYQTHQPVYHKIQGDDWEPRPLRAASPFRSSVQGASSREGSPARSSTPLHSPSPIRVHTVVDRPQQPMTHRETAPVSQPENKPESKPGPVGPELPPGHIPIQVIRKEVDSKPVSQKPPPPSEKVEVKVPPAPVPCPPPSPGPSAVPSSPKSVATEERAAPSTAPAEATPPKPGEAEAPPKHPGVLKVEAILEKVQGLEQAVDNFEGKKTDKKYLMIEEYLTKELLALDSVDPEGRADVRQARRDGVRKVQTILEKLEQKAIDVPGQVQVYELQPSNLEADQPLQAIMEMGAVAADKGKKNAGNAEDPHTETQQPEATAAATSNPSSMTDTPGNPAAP
row,Variant,effect of a mutation on the interaction
1,C137Y,with no effect
2,I92V,with no effect

# Variants of: B1
# Conditions: with reep6_human REEP6, Q96HR9
# reep6_human REEP6, Q96HR9, sequence (Q96HR9 whole entry): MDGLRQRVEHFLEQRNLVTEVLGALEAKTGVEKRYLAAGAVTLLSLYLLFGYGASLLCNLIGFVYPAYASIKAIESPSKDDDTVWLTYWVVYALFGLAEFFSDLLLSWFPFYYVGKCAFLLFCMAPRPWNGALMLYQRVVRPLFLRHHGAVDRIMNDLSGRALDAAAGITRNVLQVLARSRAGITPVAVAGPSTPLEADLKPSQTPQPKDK
row,Variant,effect of a mutation on the interaction
1,C137Y,disrupting interaction strength

# Variants of: B1
# Conditions: with stam2_human STAM2, O75886
row,Variant,effect of a mutation on the interaction
1,C137Y,with no effect

# Variants of: B1
# Conditions: with hgs_human HGS
row,Variant,effect of a mutation on the interaction
1,C137Y,with no effect

# Variants of: B2
# Conditions: with gors2_human GORASP2, Q9H8Y8
row,Variant,effect of a mutation on the interaction
1,S622T,with no effect

# Variants of: B3
# Conditions: with cep55_human CEP55, Q53EZ4
row,Variant,effect of a mutation on the interaction
1,G150E,with no effect

# Variants of: B4
# Conditions: with snip1_human SNIP1, Q8TAD8
row,Variant,effect of a mutation on the interaction
1,T535I,with no effect
2,A53V,with no effect

# Variants of: B5
# Conditions: with cep70_human CEP70, Q8NHQ1
# cep70_human CEP70, Q8NHQ1, sequence (Q8NHQ1 whole entry): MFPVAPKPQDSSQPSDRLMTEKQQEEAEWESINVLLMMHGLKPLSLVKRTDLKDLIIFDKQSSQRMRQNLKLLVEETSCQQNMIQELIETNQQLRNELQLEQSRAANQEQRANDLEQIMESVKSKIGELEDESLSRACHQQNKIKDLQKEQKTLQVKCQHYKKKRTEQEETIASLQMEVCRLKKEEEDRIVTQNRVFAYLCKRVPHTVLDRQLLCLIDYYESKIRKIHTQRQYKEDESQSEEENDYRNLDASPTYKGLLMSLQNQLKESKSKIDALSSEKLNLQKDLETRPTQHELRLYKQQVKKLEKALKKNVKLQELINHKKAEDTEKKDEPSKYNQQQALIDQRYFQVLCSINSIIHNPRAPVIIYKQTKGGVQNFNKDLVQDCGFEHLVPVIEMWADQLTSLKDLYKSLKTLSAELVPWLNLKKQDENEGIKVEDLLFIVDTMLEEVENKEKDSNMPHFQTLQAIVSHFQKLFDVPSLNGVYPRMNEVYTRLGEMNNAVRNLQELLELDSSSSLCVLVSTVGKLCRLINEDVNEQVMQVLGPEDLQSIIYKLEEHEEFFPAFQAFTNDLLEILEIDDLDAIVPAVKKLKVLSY
row,Variant,effect of a mutation on the interaction
1,V256M,with no effect

# Variants of: B5
# Conditions: with ldoc1_human LDOC1, O95751
# ldoc1_human LDOC1, O95751, sequence (O95751 whole entry): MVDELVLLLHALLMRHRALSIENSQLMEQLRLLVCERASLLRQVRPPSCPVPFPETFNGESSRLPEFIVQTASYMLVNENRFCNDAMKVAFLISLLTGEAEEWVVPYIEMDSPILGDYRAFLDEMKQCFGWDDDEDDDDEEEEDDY
row,Variant,effect of a mutation on the interaction
1,V487A,with no effect
2,T579A,with no effect
